From publication PMC6182156

Assays:
Experiment in all cases: native gel or EMSA
[1] = target: 12 x 200 x 601 (12N200) nucleosome array, unmodified histones
[2] = target: symmetric 203 bp mononucleosome (N203), unmodified histones
[3] = target: 12N200 nucleosome array assembled with linker histone H1.4 (UniProt P10412)
[4] = target: H2A.Z/H3K9cme3 12N200 nucleosome array saturated with H1.4 (UniProt P0C0S5)
[5] = target: H2A.Z/H3K9cme3 12N200 nucleosome array (UniProt P0C0S5)
[6] = target: N203 mononucleosome with a stoichiometric amount of linker histone H1.4 (UniProt P10412)
[7] = target: 147 bp nucleosome core particle (N147), unmodified histones

HP1α (Heterochromatin Protein 1 alpha), wild type (from UniProt P45973 1-191) (natural protein)
K1/2 [1]: 0.71 µM
K1/2 [2]: 0.58 µM
K1/2 [3]: 2.15 µM
K1/2 [4]: 1.15 µM
K1/2 [5]: 0.23 µM
K1/2 [6]: 1.26 µM
K1/2 [7]: 2.29 µM
